Data from patent US20200079833A1 (AstraZeneca / MedImmune, published 2020).
Starred links: 1 amine or outer side, 2 acyl side, 3 side chain; linkers in the order of their positions; H or OH if unused. Non-standard residues stand in square brackets, D forms with d. Groups on a side chain read outwards from the residue. Primed or numbered codes have the meaning given here. No end group written: not given here. *: point of attachment. γGlu = O=C(O)[C@H](CCC(=O)[*:2])N[*:1]; αMeF = C[C@](N)(Cc1ccccc1)C(=O)O; αMeK = C[C@](N)(CCCCN)C(=O)O; Lauroyl = CCCCCCCCCCCC(=O)*; αMeS = C[C@](N)(CO)C(=O)O; PEG2′ = not defined here; Aib = CC(C)(N)C(=O)O

T1: glucose-dependent insulinotropic peptide (gastric inhibitory polypeptide) receptor (GIPR), primary cAMP assay … (human, UniProt P48546 22-466)
T1 sequence (looked up): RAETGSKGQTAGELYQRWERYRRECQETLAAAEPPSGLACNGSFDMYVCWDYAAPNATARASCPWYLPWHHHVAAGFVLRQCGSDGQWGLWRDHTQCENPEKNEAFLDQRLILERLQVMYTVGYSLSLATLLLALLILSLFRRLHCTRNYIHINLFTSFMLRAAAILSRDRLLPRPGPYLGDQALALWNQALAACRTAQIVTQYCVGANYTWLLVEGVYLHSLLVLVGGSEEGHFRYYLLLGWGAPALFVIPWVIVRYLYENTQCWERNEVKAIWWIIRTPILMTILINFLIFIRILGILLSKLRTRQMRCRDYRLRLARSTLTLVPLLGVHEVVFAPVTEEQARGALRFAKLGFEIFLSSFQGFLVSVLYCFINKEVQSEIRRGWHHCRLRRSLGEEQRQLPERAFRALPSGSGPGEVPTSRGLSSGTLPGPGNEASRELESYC

T2: GLP-1R in the INS1e assay (UniProt P32301 22-463, limits assumed)
T2 sequence (looked up): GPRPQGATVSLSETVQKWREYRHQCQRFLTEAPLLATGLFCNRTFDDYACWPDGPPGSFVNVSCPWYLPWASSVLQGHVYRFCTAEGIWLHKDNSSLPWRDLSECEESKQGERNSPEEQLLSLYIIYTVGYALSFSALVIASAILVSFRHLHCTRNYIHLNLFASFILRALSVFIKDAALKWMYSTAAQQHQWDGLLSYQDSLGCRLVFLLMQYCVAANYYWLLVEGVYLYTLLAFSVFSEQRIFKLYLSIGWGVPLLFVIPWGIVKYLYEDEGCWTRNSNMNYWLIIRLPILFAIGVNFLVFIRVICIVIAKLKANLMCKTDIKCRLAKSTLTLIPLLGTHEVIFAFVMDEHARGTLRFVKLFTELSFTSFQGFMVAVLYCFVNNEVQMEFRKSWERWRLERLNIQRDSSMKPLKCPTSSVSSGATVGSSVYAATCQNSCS

B1: SEQ ID NO: 482 (peptide)
peptide: H[Aib]EGS[αMeF]TSDV[αMeS]SK([PEG2′-PEG2′-γGlu-Lauroyl])LEGEAA[αMeK]K([PEG2′-PEG2′-γGlu-Lauroyl])FIAFK([PEG2′-PEG2′-γGlu-Lauroyl])VEGG-NH2
B2: SEQ ID NO: 466 (peptide)
peptide: H[Aib]EGS[αMeF]TSDV[αMeS]SK([PEG2′-PEG2′-γGlu-Lauroyl])LEGEAA[αMeK]K([PEG2′-PEG2′-γGlu-Lauroyl])FIAK([PEG2′-PEG2′-γGlu-Lauroyl])VVEGG-NH2
B3: SEQ ID NO: 469 (peptide)
peptide: H[Aib]EGS[αMeF]TSDV[αMeS]SYK([PEG2′-PEG2′-γGlu-Lauroyl])EGEK([PEG2′-PEG2′-γGlu-Lauroyl])A[αMeK]EFIAK([PEG2′-PEG2′-γGlu-Lauroyl])VVEGG-NH2
B4: SEQ ID NO: 464 (peptide)
peptide: H[Aib]EGS[αMeF]TSDV[αMeS]SK([PEG2′-PEG2′-γGlu-Lauroyl])LEGK([PEG2′-PEG2′-γGlu-Lauroyl])AA[αMeK]EFIAK([PEG2′-PEG2′-γGlu-Lauroyl])VVEGG-NH2
B5: SEQ ID NO: 454 (peptide)
peptide: H[Aib]EGS[αMeF]TSDV[αMeS]SYK([PEG2′-PEG2′-γGlu-Lauroyl])EGEAA[αMeK]K([PEG2′-PEG2′-γGlu-Lauroyl])FIK([PEG2′-PEG2′-γGlu-Lauroyl])FVVEGG-NH2
B6: SEQ ID NO: 480 (peptide)
peptide: H[Aib]EGS[αMeF]TSDV[αMeS]SK([PEG2′-PEG2′-γGlu-Lauroyl])LEGK([PEG2′-PEG2′-γGlu-Lauroyl])AA[αMeK]EFIAFK([PEG2′-PEG2′-γGlu-Lauroyl])VEGG-NH2

target: GLP-1 receptor (GLP-1R), primary cAMP assay cell line (human, UniProt P43220 24-463); assay: cell-based or functional assay

| cAMP Primary assay EC50, Mean pM GLP-1R | cAMP Primary assay EC50, n1 | cAMP Primary assay EC50, n2 | Binder |
| --- | --- | --- | --- |
| 36.3 pM | 0.0283 nM | 0.0442 nM | B1 |
| 22.4 pM | 0.0172 nM | 0.0275 nM | B2 |
| 45.4 pM | 0.0418 nM | 0.049 nM | B3 |
| 30.3 pM | 0.0254 nM | 0.0351 nM | B4 |
| 43.7 pM | 0.0221 nM | 0.0652 nM | B5 |
| 57.5 pM | 0.056 nM | 0.0589 nM | B6 |

target: T1, glucose-dependent insulinotropic …; assay: cell-based or functional assay

| cAMP Primary assay EC50, n1 | cAMP Primary assay EC50, n2 | Binder |
| --- | --- | --- |
| 20 nM | 20 nM | B1 |
| 20.2 nM | 20.2 nM | B2 |
| 19.8 nM | 19.8 nM | B3 |
| 20.2 nM | 20.2 nM | B4 |
| 19.7 nM | 19.7 nM | B5 |
| 20 nM | 20 nM | B6 |

target: glucagon receptor (GCGR), primary cAMP assay cell line (human, UniProt P47871 26-477); assay: cell-based or functional assay
Sequence (P47871 26-477): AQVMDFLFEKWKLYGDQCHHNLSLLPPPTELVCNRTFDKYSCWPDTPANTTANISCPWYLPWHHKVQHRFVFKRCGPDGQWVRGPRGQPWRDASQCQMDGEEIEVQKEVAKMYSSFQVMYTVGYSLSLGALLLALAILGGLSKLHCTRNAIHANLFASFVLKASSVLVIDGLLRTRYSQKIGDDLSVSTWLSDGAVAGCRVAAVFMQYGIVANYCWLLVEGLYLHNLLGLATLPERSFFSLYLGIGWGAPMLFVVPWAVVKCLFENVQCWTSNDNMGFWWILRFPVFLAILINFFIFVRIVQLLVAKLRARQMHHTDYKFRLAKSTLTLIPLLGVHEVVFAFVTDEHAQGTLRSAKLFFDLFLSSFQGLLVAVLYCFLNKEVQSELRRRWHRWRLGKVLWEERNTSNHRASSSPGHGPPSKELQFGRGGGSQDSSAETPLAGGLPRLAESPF

| cAMP Primary assay EC50, n1 | cAMP Primary assay EC50, n2 | Binder |
| --- | --- | --- |
| 20 nM | 20 nM | B1 |
| 20.2 nM | 20.2 nM | B2 |
| 19.8 nM | 19.8 nM | B3 |
| 20.2 nM | 20.2 nM | B4 |
| 19.7 nM | 19.7 nM | B5 |
| 20 nM | 20 nM | B6 |

target: T2, GLP-1R in the INS1e assay; assay: cell-based or functional assay

| cAMP INS1e assay EC50, Mean pM GLP-1R | cAMP INS1e assay EC50, n1 | cAMP INS1e assay EC50, n2 | Binder |
| --- | --- | --- | --- |
| 5860 pM | 8.57 nM | 3.15 nM | B1 |
| 3200 pM | 3.86 nM | 2.55 nM | B2 |
| 4900 pM | 6.9 nM | 2.89 nM | B3 |
| 4020 pM | 4.46 nM | 3.57 nM | B4 |
| 5540 pM | 4.1 nM | 6.99 nM | B5 |
| 6530 pM | 9.37 nM | 3.69 nM | B6 |
